{"source": "paper PMC6684798", "about": "“Structural basis for the target specificity of actin histidine methyltransferase SETD3” (Nature Communications, 2019)", "biological_target": "T1, SETD3 (Homo sapiens, UniProt Q86TU7)", "T1 construct": "GST (cleaved yes); made in house; host or cells: Escherichia coli BL21(DE3) CodonPlus", "T1 sequence (Q86TU7 1-594)": "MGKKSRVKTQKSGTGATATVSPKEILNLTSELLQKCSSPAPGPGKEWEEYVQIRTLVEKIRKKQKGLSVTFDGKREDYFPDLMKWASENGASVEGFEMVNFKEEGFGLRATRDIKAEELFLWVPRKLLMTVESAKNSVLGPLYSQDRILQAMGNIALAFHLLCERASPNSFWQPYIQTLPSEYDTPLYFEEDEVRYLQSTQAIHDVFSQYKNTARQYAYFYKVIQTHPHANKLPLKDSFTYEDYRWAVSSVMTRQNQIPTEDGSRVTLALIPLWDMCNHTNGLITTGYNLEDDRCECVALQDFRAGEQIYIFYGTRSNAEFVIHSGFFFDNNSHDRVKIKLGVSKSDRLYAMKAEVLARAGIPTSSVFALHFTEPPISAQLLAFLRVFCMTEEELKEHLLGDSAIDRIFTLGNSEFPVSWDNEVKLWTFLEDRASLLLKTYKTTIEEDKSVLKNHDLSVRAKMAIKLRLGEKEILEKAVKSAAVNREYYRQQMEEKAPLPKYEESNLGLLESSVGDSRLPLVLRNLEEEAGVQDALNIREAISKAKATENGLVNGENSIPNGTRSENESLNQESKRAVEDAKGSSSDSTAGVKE", "test": "SETD3 activity on K73(66-80) at two temperatures (Supplementary Fig. 3c)", "type": "biochemical", "settings": "overnight, pH 8.0, [E]=15 µM, [SAM]=100 µM, [S]=700 µM", "protocol": "Recombinant human SETD3 (pXC2003) was expressed as a GST-fusion[22] in Escherichia coli BL21(DE3) CodonPlus^TM cells (Stratagene). The SETD3 mutants at residue 255 (N255A; pXC2093 and N255V; pXC2094) were generated with Q5 Site-Directed Mutagenesis Kit (New England Biolabs), confirmed by sequencing and the same protocol for expression and purification were followed. Briefly, the purification was conducted in a BIO-RAD NGC^TM system using a three-column chromatography of glutathione-sepharose, HiTrap Q-HP and Superdex 200. The GST tag was removed by PreScisson Protease (purified in-house). The purified SETD3 proteins at a concentration ~25–35 mg/ml were kept at −80 °C in storage buffer for future use [20 mM Tris (pH 8.0), 200 mM NaCl, 5% glycerol, and 0.5 mM tris (2-carboxyethyl) phosphine (TCEP)].\nFor H73 (residues 66–80), a reaction mixture contained 20 mM Tris/HCl (pH 8.0), 50 mM NaCl, 0.1 mg/ml BSA, 1 mM DTT, 0.18 µM SETD3, 40 µM SAM, and 20 µM H73 peptide, the reaction was performed for 20 min (Supplementary Fig. 3b). For K73 (residues 66–80), a reaction mixture contained 20 mM Tris/HCl (pH 8.0), 50 mM NaCl, 0.1 mg/ml BSA, 1 mM DTT, 15 µM SETD3, 100 µM SAM, and 700 µM K73 peptide, the reaction was performed overnight (Supplementary Fig. 3c). All reactions were terminated by the addition of TFA to 0.1% (v/v). […]\nconditions optimized for H73(66-80) (red line): [E]=0.18 µM, [SAM]=40 µM, [S]=20 µM, pH 8.0 at room temperature for indicated reaction time. b, SETD3 activity on H73(66-80) at two difference temperatures under the conditions of [E]=0.18 µM, [SAM]=40 µM, [SH7 3]=20 µM at pH 8. 0 for 20 min reaction. c, SETD3 activity on K73 (66-80 ) at room temperature (~22 °C) and 37 °C under the conditions of increased amounts of [E]=15 µM, [SAM]=100 µM and [S K73]=700 µM at pH 8.0 for overnight reaction. Data represent the mean ± SD of N number of independent determinations (N=2 in panels a and b and N=4 in panel c) performed in duplicate. Source data are provided as a Source Data file. d, A stereo image of omit electron density (Fo -Fc) omitting the side chain of K73 in the active site contoured at 4 s above the mean.\n(1 picture or pasted object on this page, not shown here)"}
{"substance": "K73(66–80): K73-containing (H73K) actin peptide, residues 66–80 (TLKYPIEKGIVTNWD; UniProt P60709 66-80, looked up, variant H73K)", "values": [{"measurement": "CH3 transferred", "setting": "37 °C, replicate 1", "result": 1.773, "unit": "µM"}, {"measurement": "CH3 transferred", "setting": "37 °C, replicate 2", "result": 2.482, "unit": "µM"}, {"measurement": "CH3 transferred", "setting": "37 °C, replicate 3", "result": 3.183, "unit": "µM"}, {"measurement": "CH3 transferred", "setting": "37 °C, replicate 4", "result": 3.325, "unit": "µM"}, {"measurement": "CH3 transferred", "setting": "RT (~22 °C), replicate 1", "result": 0.6813, "unit": "µM"}, {"measurement": "CH3 transferred", "setting": "RT (~22 °C), replicate 2", "result": 0.8003, "unit": "µM"}, {"measurement": "CH3 transferred", "setting": "RT (~22 °C), replicate 3", "result": 0.7535, "unit": "µM"}, {"measurement": "CH3 transferred", "setting": "RT (~22 °C), replicate 4", "result": 0.7963, "unit": "µM"}]}
